Measured values as given in patent US20160115245A1 (VIB VZW, published 2016).

What was measured:
[1] = biological target: T1, recombinant human superoxide dismutase [Cu-Zn] (SOD1), wild type (human, UniProt P00441 2-154); assay: isothermal titration calorimetry, 25 C
T1 construct: Used immobilised in the dot blot and in solution in ITC; The construct is not described further; also called recombinant SOD1; SOD1 WT

[2] = biological target: T1, recombinant human superoxide dismutase …; assay: isothermal titration calorimetry, 25 C; remark: listed apart in the source
[3] = biological target: T2, SOD1-CFP (human SOD1 fused to CFP, expressed in HeLa cells) (human, UniProt P00441 2-154); assay: Ni-agarose pull-down of HA-Myc-His6 tagged nanobody from co-transfected HeLa cells, blot anti-CFP
T2 construct: not shown: CFP of pCDNA3-CFP (Addgene #13030)
T2 sequence (P00441 2-154): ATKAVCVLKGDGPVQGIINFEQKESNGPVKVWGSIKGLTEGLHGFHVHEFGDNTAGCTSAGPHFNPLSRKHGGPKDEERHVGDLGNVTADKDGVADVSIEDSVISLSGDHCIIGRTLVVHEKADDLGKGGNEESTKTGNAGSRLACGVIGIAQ

T1 sequence (P00441 2-154 limits assumed): as the sequence (P00441 2-154) above

| Binder | Kd [1] | ΔH [2] | ΔS [2] | binding result [3] |
| --- | --- | --- | --- | --- |
| Nb1, His6-tagged, expressed in E. coli (pET30a) (VHH, Alpaca-derived nanobody; also called SOD1 nanobody from alpaca library; not shown: His6 tag and the pET30a vector residues around it) VHH: QVQLQESGGGLVQPGGSLRLSCRASETLFSLYAMGWYRQAPGKQPELIATISGGGEGTGNYADPVKGRFTISRNNADNMVFLQMNNLKPEDTAVYYCNVYGTNLAPWGQGTQVTVSS | ~200 nM | -11 kcal/mol | -17 cal/mol/deg | – |
| Nb4 (VHH, Same nanobody as m4, but in the HeLa-expressed HA-Myc-His6 format of m6-m8; also called Nb4, HA-Myc-His6 tagged, expressed in HeLa cells) VHH: QVQLQESGGGSVQTGGSLRLSCAASGYTFSSYCMGWFRQAPGKERELVSTIISDGSTYYADSVKGRFTISQDNAKNTVYLQMNNLKAEDTAIYYCAARSGGVCSGRASRYNYWGQGTQVTVSS | – | – | – | no binding |
| Nb2, His6-tagged, expressed in E. coli (pET30a) (VHH, Dromedary-derived nanobody; also called SOD1 nanobody from dromedary library; not shown: His6 tag from pET30a (BamHI/XhoI)) VHH: QVQLQESGGGSVQAGGSLRLACVASGGDTRPYITYWMGWYRQAPGKEREGVATIYTGGSGTYYSDSVEGRFTISQDKAQRTVYLQMNDLKPEDTAMYYCAAGNGALPPGRRLSPQNMDTWGPGTQVTVSS | ~1000 nM | -16 kcal/mol | -23 cal/mol/deg | – |
